This is an account of results in patent publication US20260374857 (published 2026).

To fix the notation:
T1: GnRH Bio-peptide 1 (not fully specified)
T1 chain: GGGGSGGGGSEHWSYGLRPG

T2: GnRH Bio-peptide 2 (not fully specified)
T2 chain: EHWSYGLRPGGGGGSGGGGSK

B1: Clone 1 Variant 5 (antibody, V domains shown)
VH: QVQLVESGGGLVQAGGSVRLSCTASGRTFNNYVLGWFRQTPGKEREFVAAIRGTGSTTHADSVKGRFTISRDNAKNTVYLQMNSLKPEDTAVYYCAADRTYYPGALRPQYWGQGTQVTVSS
B2: Clone 1 Variant 3 (antibody, V domains shown)
VH: QVQLVESGGGLVQAGGSVRLSCTASGRTFNNYVLGWFRQTPGKEREFVAAIRGTGSTTHADSVKGRFTISRDNAKNTVYLQMNSLKPEDTAVYYCAADDAYYSGNLRPHYWGQGTQVTVSS
B3: Clone 1 Variant 4 (antibody, V domains shown)
VH: QVQLVESGGGLVQAGGSVRLSCTASGRTFNNYVLGWFRQTPGKEREFVAAIRGTGSTTHADSVKGRFTISRDNAKNTVYLQMNSLKPEDTAVYYCAADETYYPGNLRPHYWGQGTQVTVSS
B4: Clone 1 Variant 1 (antibody, V domains shown)
VH: QVQLVESGGGLVQAGGSVRLSCTASGRTFNNYVLGWFRQTPGKEREFVAAIRGTGSTTHADSVKGRFTISRDNAKNTVYLQMNSLKPEDTAVYYCAADDAYYPGNLRPHYWGQGTQVTVSS
B5: Clone 1 Variant 2 (antibody, V domains shown)
VH: QVQLVESGGGLVQAGGSVRLSCTASGRTFNNYVLGWFRQTPGKEREFVAAIRGTGSTTHADSVKGRFTISRDNAKNTVYLQMNSLKPEDTAVYYCAADRAYYPGNLRPHYWGQGTQVTVSS
B6: 01Tm3 (antibody, V domains shown)
VH: DVQLVESGGGLVQPGGSLRLSCAASGRTFNAYVLGWFRQTPGKEREFVAAIRGTGSTTHADSVKGRFTISRDNAKNTVYLQMNSLKPEDTAVYYCAADDAYYPGNLRPQYWGQGTQVTVSS
B7: 01Tm1 (antibody, V domains shown)
VH: DVQLVESGGGLVQPGGSLRLSCAASGRTFNNYVLGWFRQTPGKEREFVAAIRGTGSTTHADSVKGRFTISRDNAKNTVYLQMNSLKPEDTAVYYCAADDAYYPGNLRPQYWGQGTQVTVSS
B8: 01Tm4 (antibody, V domains shown)
VH: DVQLVESGGGLVQPGGSLRLSCAASGRTFSNYVLGWFRQTPGKEREFVAAIRGTGSTTHADSVKGRFTISRDNAKNTVYLQMNSLKPEDTAVYYCAADDAYYPGNLRPQYWGQGTQVTVSS
B9: 01Tm2 (antibody, V domains shown)
VH: DVQLVESGGGLVQPGGSLRLSCAASGRTFQNYVLGWFRQTPGKEREFVAAIRGTGSTTHADSVKGRFTISRDNAKNTVYLQMNSLKPEDTAVYYCAADDAYYPGNLRPQYWGQGTQVTVSS
B10: Clone 1 Ala scanning 8 (antibody, V domains shown)
VH: QVQLVESGGGLVQAGGSVRLSCTASGRTFNNYVLGWFRQTPGKEREFVAAIRGTGSTTHADSVKGRFTISRDNAKNTVYLQMNSLKPEDTAVYYCAADDAYYPGNARPQYWGQGTQVTVSS
B11: Clone 1 Ala scanning 7 (antibody, V domains shown)
VH: QVQLVESGGGLVQAGGSVRLSCTASGRTFNNYVLGWFRQTPGKEREFVAAIRGTGSTTHADSVKGRFTISRDNAKNTVYLQMNSLKPEDTAVYYCAADDAYYPGALRPQYWGQGTQVTVSS
B12: Clone 1 Ala scanning 6 (antibody, V domains shown)
VH: QVQLVESGGGLVQAGGSVRLSCTASGRTFNNYVLGWFRQTPGKEREFVAAIRGTGSTTHADSVKGRFTISRDNAKNTVYLQMNSLKPEDTAVYYCAADDAYYPANLRPQYWGQGTQVTVSS
B13: Clone 1 Ala scanning 1 (antibody, V domains shown)
VH: QVQLVESGGGLVQAGGSVRLSCTASGRTFNNYVLGWFRQTPGKEREFVAAIRGTGSTTHADSVKGRFTISRDNAKNTVYLQMNSLKPEDTAVYYCAAADAYYPGNLRPQYWGQGTQVTVSS
B14: Clone 1 Ala scanning 9 (antibody, V domains shown)
VH: QVQLVESGGGLVQAGGSVRLSCTASGRTFNNYVLGWFRQTPGKEREFVAAIRGTGSTTHADSVKGRFTISRDNAKNTVYLQMNSLKPEDTAVYYCAADDAYYPGNLAPQYWGQGTQVTVSS
B15: Clone 1 Ala scanning 4 (antibody, V domains shown)
VH: QVQLVESGGGLVQAGGSVRLSCTASGRTFNNYVLGWFRQTPGKEREFVAAIRGTGSTTHADSVKGRFTISRDNAKNTVYLQMNSLKPEDTAVYYCAADDAYAPGNLRPQYWGQGTQVTVSS
B16: Clone 1 Ala scanning 3 (antibody, V domains shown)
VH: QVQLVESGGGLVQAGGSVRLSCTASGRTFNNYVLGWFRQTPGKEREFVAAIRGTGSTTHADSVKGRFTISRDNAKNTVYLQMNSLKPEDTAVYYCAADDAAYPGNLRPQYWGQGTQVTVSS
B17: Clone 1 Ala scanning 11 (antibody, V domains shown)
VH: QVQLVESGGGLVQAGGSVRLSCTASGRTFNNYVLGWFRQTPGKEREFVAAIRGTGSTTHADSVKGRFTISRDNAKNTVYLQMNSLKPEDTAVYYCAADDAYYPGNLRPAYWGQGTQVTVSS
B18: Clone 1 Ala scanning 5 (antibody, V domains shown)
VH: QVQLVESGGGLVQAGGSVRLSCTASGRTFNNYVLGWFRQTPGKEREFVAAIRGTGSTTHADSVKGRFTISRDNAKNTVYLQMNSLKPEDTAVYYCAADDAYYAGNLRPQYWGQGTQVTVSS
B19: Clone 1 Ala scanning 2 (antibody, V domains shown)
VH: QVQLVESGGGLVQAGGSVRLSCTASGRTFNNYVLGWFRQTPGKEREFVAAIRGTGSTTHADSVKGRFTISRDNAKNTVYLQMNSLKPEDTAVYYCAADAAYYPGNLRPQYWGQGTQVTVSS
B20: Clone 1 Ala scanning 10 (antibody, V domains shown)
VH: QVQLVESGGGLVQAGGSVRLSCTASGRTFNNYVLGWFRQTPGKEREFVAAIRGTGSTTHADSVKGRFTISRDNAKNTVYLQMNSLKPEDTAVYYCAADDAYYPGNLRAQYWGQGTQVTVSS
B21: Clone 9 Ala scanning 11 (antibody, V domains shown)
VH: EVQLVESGGGLVQSGGSLGLSCAASGRTFSGYAMGWFRQAPGKEREFVAAIRWSGGSTSYADSVKGRFTISRDNAKNTVYLQMNSLKPEDTAVYYCAADRGPSGSYYYADYWGQGTQVTVSS
B22: Clone 9 Ala scanning 10 (antibody, V domains shown)
VH: EVQLVESGGGLVQSGGSLGLSCAASGRTFSGYAMGWFRQAPGKEREFVAAIRWSGGSTSYADSVKGRFTISRDNAKNTVYLQMNSLKPEDTAVYYCAADRGPSGSYYAPDYWGQGTQVTVSS
B23: Clone 9 Ala scanning 12 (antibody, V domains shown)
VH: EVQLVESGGGLVQSGGSLGLSCAASGRTFSGYAMGWFRQAPGKEREFVAAIRWSGGSTSYADSVKGRFTISRDNAKNTVYLQMNSLKPEDTAVYYCAADRGPSGSYYYPAYWGQGTQVTVSS
B24: Clone 9 Ala scanning 4 (antibody, V domains shown)
VH: EVQLVESGGGLVQSGGSLGLSCAASGRTFSGYAMGWFRQAPGKEREFVAAIRWSGGSTSYADSVKGRFTISRDNAKNTVYLQMNSLKPEDTAVYYCAADRGASGSYYYPDYWGQGTQVTVSS
B25: Clone 9 Ala scanning 7 (antibody, V domains shown)
VH: EVQLVESGGGLVQSGGSLGLSCAASGRTFSGYAMGWFRQAPGKEREFVAAIRWSGGSTSYADSVKGRFTISRDNAKNTVYLQMNSLKPEDTAVYYCAADRGPSGAYYYPDYWGQGTQVTVSS
B26: Clone 9 Ala scanning 2 (antibody, V domains shown)
VH: EVQLVESGGGLVQSGGSLGLSCAASGRTFSGYAMGWFRQAPGKEREFVAAIRWSGGSTSYADSVKGRFTISRDNAKNTVYLQMNSLKPEDTAVYYCAADAGPSGSYYYPDYWGQGTQVTVSS
B27: Clone 9 Ala scanning 8 (antibody, V domains shown)
VH: EVQLVESGGGLVQSGGSLGLSCAASGRTFSGYAMGWFRQAPGKEREFVAAIRWSGGSTSYADSVKGRFTISRDNAKNTVYLQMNSLKPEDTAVYYCAADRGPSGSAYYPDYWGQGTQVTVSS
B28: Clone 9 Ala scanning 9 (antibody, V domains shown)
VH: EVQLVESGGGLVQSGGSLGLSCAASGRTFSGYAMGWFRQAPGKEREFVAAIRWSGGSTSYADSVKGRFTISRDNAKNTVYLQMNSLKPEDTAVYYCAADRGPSGSYAYPDYWGQGTQVTVSS
B29: Clone 9 Ala scanning 5 (antibody, V domains shown)
VH: EVQLVESGGGLVQSGGSLGLSCAASGRTFSGYAMGWFRQAPGKEREFVAAIRWSGGSTSYADSVKGRFTISRDNAKNTVYLQMNSLKPEDTAVYYCAADRGPAGSYYYPDYWGQGTQVTVSS
B30: Clone 9 Ala scanning 6 (antibody, V domains shown)
VH: EVQLVESGGGLVQSGGSLGLSCAASGRTFSGYAMGWFRQAPGKEREFVAAIRWSGGSTSYADSVKGRFTISRDNAKNTVYLQMNSLKPEDTAVYYCAADRGPSASYYYPDYWGQGTQVTVSS
B31: Clone 9 Ala scanning 3 (antibody, V domains shown)
VH: EVQLVESGGGLVQSGGSLGLSCAASGRTFSGYAMGWFRQAPGKEREFVAAIRWSGGSTSYADSVKGRFTISRDNAKNTVYLQMNSLKPEDTAVYYCAADRAPSGSYYYPDYWGQGTQVTVSS

In one assay the target is T1, GnRH Bio-peptide 1. The assay can be described thus: ELISA. For orientation: ELISA stands for enzyme-linked immunosorbent assay.
One may read the EC50 as the concentration at which the effect is half-maximal. Read a high EC50 as weaker potency. The molecule B1 yielded a concentration for a half-maximal effect (EC50) of 0.94 nM. Molecule B2 registered an EC50 of 1.19 nM. The same measure, in the same setting: the same measure for B3: 0.96 nM; for B4: 0.39 nM; for B5: 0.5 nM.

Another assay deals with T2, GnRH Bio-peptide 2. The assay can be described thus: ELISA.
The molecule B6 registered a half-maximal effective concentration (EC50) of 0.33 nM. Molecule B7 returned an EC50 of 0.33 nM.

As for B8, the EC50 is 0.32 nM. With B9, the EC50 came to 0.32 nM.

Another assay addresses T1, GnRH Bio-peptide 1. Put plainly: ELISA. This is another data set of the same source.
For the molecule B10, the concentration for a half-maximal effect (EC50) turned out to be 4 nM.

Turning to B11, the EC50 worked out at 4.3 nM. The same measure, in the same setting: the same measure for B12: 26.2 nM; for B13: 509 nM. The same measure, in the same setting: for B14 the value was 4.2 nM; for B15, 152 nM. With B16, the EC50 was > 1000 nM. Turning to B17, the EC50 turned out to be 11.9 nM. B18 came in with an EC50 of 16.9 nM. B19 returned an EC50 of 19.8 nM. In turn, B20 had a half-maximal effective concentration (EC50) of 65.7 nM.

The target of another assay is T1, GnRH Bio-peptide 1. Put plainly: ELISA. This is another data set of the same source.
Take B21: the EC50 was 375 nM. On the same count and under the same terms, for B22 the value was 61.2 nM; for B23, 365 nM; for B24, 51.3 nM. B25 came in with an EC50 of 15.6 nM.

B26 yielded an EC50 of 29.9 nM. On to B27, for which the response was half-maximal at 554 nM (EC50). In the case of B28, a half-maximal effect (EC50) was put at 56.4 nM.

The molecule B29 yielded an EC50 of 49.5 nM.

B30 gave an EC50 of 524 nM.

Molecule B31 registered an EC50 of 307 nM.

A further assay concerns the target T1, GnRH Bio-peptide 1. The assay can be described thus: ELISA. The source holds these as a separate data set.
For the molecule B6, the 50% effective concentration (EC50) amounted to 0.4 nM. As to B7, the EC50 is 0.34 nM. Turning to B8, the EC50 turned out to be 0.32 nM.

As to B9, the concentration for a half-maximal effect (EC50) was determined as 0.32 nM.
